{"source": "paper PMC7036004", "assay_in_all_cases": "fluorescence polarization", "key": {"[1]": {"molecular_target": "T1, wt-CTCF (3xFLAG-Halo-wt-CTCF-6xHis) (mouse, UniProt Q61164 1-736)", "T1 sequence": "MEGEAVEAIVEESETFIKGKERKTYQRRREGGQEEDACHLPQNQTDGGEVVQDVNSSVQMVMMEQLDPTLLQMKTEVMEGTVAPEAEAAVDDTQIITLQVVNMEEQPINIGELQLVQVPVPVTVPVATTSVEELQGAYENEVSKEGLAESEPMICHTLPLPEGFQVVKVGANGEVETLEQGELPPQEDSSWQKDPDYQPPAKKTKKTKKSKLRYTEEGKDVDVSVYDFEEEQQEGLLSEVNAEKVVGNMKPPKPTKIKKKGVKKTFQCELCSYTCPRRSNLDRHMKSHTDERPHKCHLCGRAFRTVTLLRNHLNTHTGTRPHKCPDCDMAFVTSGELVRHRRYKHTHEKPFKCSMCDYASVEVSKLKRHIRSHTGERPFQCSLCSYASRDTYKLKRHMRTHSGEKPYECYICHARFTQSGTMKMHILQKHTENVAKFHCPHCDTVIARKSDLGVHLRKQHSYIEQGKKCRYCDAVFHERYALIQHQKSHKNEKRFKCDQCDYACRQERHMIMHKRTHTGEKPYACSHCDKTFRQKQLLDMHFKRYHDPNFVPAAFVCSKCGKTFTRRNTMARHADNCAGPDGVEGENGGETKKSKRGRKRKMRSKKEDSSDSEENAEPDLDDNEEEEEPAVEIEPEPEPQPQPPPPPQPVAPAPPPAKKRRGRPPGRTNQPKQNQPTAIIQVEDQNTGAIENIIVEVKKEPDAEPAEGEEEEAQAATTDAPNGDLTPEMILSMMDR"}, "[2]": {"molecular_target": "T2, ΔRBRi-CTCF (3xFLAG-Halo-ΔRBRi-CTCF-6xHis) (mouse, UniProt Q61164 1-575+612-736, internal_change)", "T2 sequence": "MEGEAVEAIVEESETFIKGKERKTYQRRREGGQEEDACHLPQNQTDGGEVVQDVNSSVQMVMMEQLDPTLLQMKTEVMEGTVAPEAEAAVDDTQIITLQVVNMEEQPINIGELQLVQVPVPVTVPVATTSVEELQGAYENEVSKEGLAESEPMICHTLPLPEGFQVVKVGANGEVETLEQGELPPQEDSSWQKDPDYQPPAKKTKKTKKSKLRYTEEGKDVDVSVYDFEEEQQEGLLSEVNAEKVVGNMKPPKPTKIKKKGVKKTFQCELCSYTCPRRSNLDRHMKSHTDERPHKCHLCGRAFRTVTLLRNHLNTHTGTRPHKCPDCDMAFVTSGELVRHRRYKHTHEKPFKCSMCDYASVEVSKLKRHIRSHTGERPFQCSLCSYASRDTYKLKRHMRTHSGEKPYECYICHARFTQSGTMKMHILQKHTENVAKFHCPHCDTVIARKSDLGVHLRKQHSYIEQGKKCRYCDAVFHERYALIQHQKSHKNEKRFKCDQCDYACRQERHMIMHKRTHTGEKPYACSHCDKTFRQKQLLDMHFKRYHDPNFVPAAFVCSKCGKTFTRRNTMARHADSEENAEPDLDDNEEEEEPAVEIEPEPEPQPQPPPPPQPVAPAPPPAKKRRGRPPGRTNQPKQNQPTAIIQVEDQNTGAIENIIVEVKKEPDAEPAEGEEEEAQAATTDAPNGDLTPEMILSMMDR"}, "[3]": {"molecular_target": "T1, wt-CTCF (3xFLAG-Halo-wt-CTCF-6xHis)", "remark": "listed apart in the source"}, "[4]": {"molecular_target": "T2, ΔRBRi-CTCF …", "remark": "listed apart in the source"}}, "note": "Read-outs that look alike come from different tables or passages of the source.", "data": [{"binder": "Mutated core CTCF binding site duplex (dsDNA) DNA 1: AGGATTCTAATTTCGATCA DNA 2: TGATCGAAATTAGAATCCT", "values": [{"measurement": "binding result", "setting": "[1]", "result": "no binding"}, {"measurement": "binding result", "setting": "[2]", "result": "no binding"}]}, {"binder": "Core CTCF binding site duplex (dsDNA) DNA 1: AGGACCAGCAGGGGGCGCA DNA 2: TGCGCCCCCTGCTGGTCCT", "values": [{"measurement": "binding result", "setting": "[3]", "result": "binds"}, {"measurement": "binding result", "setting": "[4]", "result": "binds"}]}]}
